Test results reported in patent US20200024357A1 (published 2020).

Target: T1, human CD39 (vascular CD39, NTPDase1, ENTPD1) expressed at the cell surface (human, UniProt P49961 1-510)
T1 construct: also called huCD39; CHO-huCD39
T1 sequence: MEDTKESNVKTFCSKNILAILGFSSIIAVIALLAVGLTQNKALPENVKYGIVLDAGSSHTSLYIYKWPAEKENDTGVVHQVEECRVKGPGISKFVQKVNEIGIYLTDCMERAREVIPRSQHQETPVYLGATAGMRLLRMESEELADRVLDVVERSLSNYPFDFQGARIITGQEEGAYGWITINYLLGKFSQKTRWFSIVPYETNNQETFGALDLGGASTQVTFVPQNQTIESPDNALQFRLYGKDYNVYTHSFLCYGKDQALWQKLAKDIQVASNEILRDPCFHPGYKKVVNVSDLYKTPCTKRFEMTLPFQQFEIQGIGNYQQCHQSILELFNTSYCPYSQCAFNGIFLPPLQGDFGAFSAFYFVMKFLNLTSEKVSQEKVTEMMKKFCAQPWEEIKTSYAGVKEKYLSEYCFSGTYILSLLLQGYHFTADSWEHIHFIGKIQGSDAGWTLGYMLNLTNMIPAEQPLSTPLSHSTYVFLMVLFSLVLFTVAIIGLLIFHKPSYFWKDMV
Assay: flow cytometry on CHO cells expressing human CD39
Protocol: Cells were incubated with various concentration of unlabeled anti-CD39 antibody from 30 μg/ml to 5×10-⁴ μg/ml, for 30 minutes at 4° C. After washes, cells were incubated with Goat anti-mouse H+L labeled secondary antibody for 30 min at 4° C.
Antibodies mAb1-21 were assessed for binding to CD39 by flow cytometry as described in Example 7, using CHO cells expressing human CD39 and CHO cells expressing cynomolgus (Macaca fascicularis) CD39.

- binding result: binds
B1: mAb20 H4L1 (antibody, human IgG1, kappa, V domains shown)
VH: QVQLVQSGAEVKKPGASVKVSCKASGYTFTDYNMHWVRQAPGQRLEWIGYIVPLNGGSTFNQKFKGRATITVDTSARTAYMELSSLRSEDTAVYYCARGGTRFAYWGQGTLVTVSS
VL: DIVMTQSPDSLAVSLGERATINCRASESVDNFGVSFMYWFQQKPGQPPKLLIYGASNQGSGVPDRFSGSGSGTDFTLTISSLQAEDVAVYYCQQTKEVPYTFGGGTKVEIKR
notes: The full heavy chain carries L234A/L235E/G237A/A330S/P331S
